Measurements from PMC5768893.

Tests used:
[1] = western blot and immunostaining, anti-pT410, endogenous PKCζ; conditions: glycan lost; control: control (Egfp shRNA) ESCs
[2] = western blot anti-pT410 after FGF4 stimulation; conditions: glycan lost; control: control cells stimulated with FGF4
[3] = western blot of phosphorylated PKCζ-FLAG; conditions: glycan lost; control: wild-type PKCζ-FLAG
[4] = anti-FLAG IP, anti-pT410 blot; conditions: glycan gained; control: untreated PKCζ-FLAG cells
[5] = western blot anti-pT410 during PrE differentiation; conditions: glycan gained; control: PrE day 4 cells without inhibitor

| Protein | other: PKCζ Thr-410 phosphorylation [1] | other: PKCζ Thr-410 phosphorylation [2] | other: PKCζ phosphorylation [3] | other: PKCζ Thr-410 phosphorylation [4] | other: PKCζ Thr-410 phosphorylation [5] |
| --- | --- | --- | --- | --- | --- |
| PKCζ: Ogt KD (protein) parent chain: MPSRTDPKMDRSGGRVRLKAHYGGDILITSVDAMTTFKDLCEEVRDMCGLHQQHPLTLKWVDSEGDPCTVSSQMELEEAFRLVCQGRDEVLIIHVFPSIPEQPGMPCPGEDKSIYRRGARRWRKLYRANGHLFQAKRFNRGAYCGQCSERIWGLSRQGYRCINCKLLVHKRCHVLVPLTCRRHMDSVMPSQEPPVDDKNDGVDLPSEETDGIAYISSSRKHDNIKDDSEDLKPVIDGVDGIKISQGLGLQDFDLIRVIGRGSYAKVLLVRLKKNDQIYAMKVVKKELVHDDEDIDWVQTEKHVFEQASSNPFLVGLHSCFQTTSRLFLVIEYVNGGDLMFHMQRQRKLPEEHARFYAAEICIALNFLHERGIIYRDLKLDNVLLDADGHIKLTDYGMCKEGLGPGDTTSTFCGTPNYIAPEILRGEEYGFSVDWWALGVLMFEMMAGRSPFDIITDNPDMNTEDYLFQVILEKPIRIPRFLSVKASHVLKGFLNKDPKERLGCRPQTGFSDIKSHAFFRSIDWDLLEKKQTLPPFQPQITDDYGLDNFDTQFTSEPVQLTPDDEDVIKRIDQSEFEGFEYINPLLLSAEESV | increases | increases |  |  |  |
| PKCζ: T408A (protein) parent chain: MPSRTDPKMDRSGGRVRLKAHYGGDILITSVDAMTTFKDLCEEVRDMCGLHQQHPLTLKWVDSEGDPCTVSSQMELEEAFRLVCQGRDEVLIIHVFPSIPEQPGMPCPGEDKSIYRRGARRWRKLYRANGHLFQAKRFNRGAYCGQCSERIWGLSRQGYRCINCKLLVHKRCHVLVPLTCRRHMDSVMPSQEPPVDDKNDGVDLPSEETDGIAYISSSRKHDNIKDDSEDLKPVIDGVDGIKISQGLGLQDFDLIRVIGRGSYAKVLLVRLKKNDQIYAMKVVKKELVHDDEDIDWVQTEKHVFEQASSNPFLVGLHSCFQTTSRLFLVIEYVNGGDLMFHMQRQRKLPEEHARFYAAEICIALNFLHERGIIYRDLKLDNVLLDADGHIKLTDYGMCKEGLGPGDTTSTFCGTPNYIAPEILRGEEYGFSVDWWALGVLMFEMMAGRSPFDIITDNPDMNTEDYLFQVILEKPIRIPRFLSVKASHVLKGFLNKDPKERLGCRPQTGFSDIKSHAFFRSIDWDLLEKKQTLPPFQPQITDDYGLDNFDTQFTSEPVQLTPDDEDVIKRIDQSEFEGFEYINPLLLSAEESV |  |  | no change |  |  |
| PKCζ: PUGNAc (protein) parent chain: MPSRTDPKMDRSGGRVRLKAHYGGDILITSVDAMTTFKDLCEEVRDMCGLHQQHPLTLKWVDSEGDPCTVSSQMELEEAFRLVCQGRDEVLIIHVFPSIPEQPGMPCPGEDKSIYRRGARRWRKLYRANGHLFQAKRFNRGAYCGQCSERIWGLSRQGYRCINCKLLVHKRCHVLVPLTCRRHMDSVMPSQEPPVDDKNDGVDLPSEETDGIAYISSSRKHDNIKDDSEDLKPVIDGVDGIKISQGLGLQDFDLIRVIGRGSYAKVLLVRLKKNDQIYAMKVVKKELVHDDEDIDWVQTEKHVFEQASSNPFLVGLHSCFQTTSRLFLVIEYVNGGDLMFHMQRQRKLPEEHARFYAAEICIALNFLHERGIIYRDLKLDNVLLDADGHIKLTDYGMCKEGLGPGDTTSTFCGTPNYIAPEILRGEEYGFSVDWWALGVLMFEMMAGRSPFDIITDNPDMNTEDYLFQVILEKPIRIPRFLSVKASHVLKGFLNKDPKERLGCRPQTGFSDIKSHAFFRSIDWDLLEKKQTLPPFQPQITDDYGLDNFDTQFTSEPVQLTPDDEDVIKRIDQSEFEGFEYINPLLLSAEESV |  |  |  | decreases | decreases |
| PKCζ: Thiamet G (protein) parent chain: MPSRTDPKMDRSGGRVRLKAHYGGDILITSVDAMTTFKDLCEEVRDMCGLHQQHPLTLKWVDSEGDPCTVSSQMELEEAFRLVCQGRDEVLIIHVFPSIPEQPGMPCPGEDKSIYRRGARRWRKLYRANGHLFQAKRFNRGAYCGQCSERIWGLSRQGYRCINCKLLVHKRCHVLVPLTCRRHMDSVMPSQEPPVDDKNDGVDLPSEETDGIAYISSSRKHDNIKDDSEDLKPVIDGVDGIKISQGLGLQDFDLIRVIGRGSYAKVLLVRLKKNDQIYAMKVVKKELVHDDEDIDWVQTEKHVFEQASSNPFLVGLHSCFQTTSRLFLVIEYVNGGDLMFHMQRQRKLPEEHARFYAAEICIALNFLHERGIIYRDLKLDNVLLDADGHIKLTDYGMCKEGLGPGDTTSTFCGTPNYIAPEILRGEEYGFSVDWWALGVLMFEMMAGRSPFDIITDNPDMNTEDYLFQVILEKPIRIPRFLSVKASHVLKGFLNKDPKERLGCRPQTGFSDIKSHAFFRSIDWDLLEKKQTLPPFQPQITDDYGLDNFDTQFTSEPVQLTPDDEDVIKRIDQSEFEGFEYINPLLLSAEESV |  |  |  | decreases | decreases |
